Tests used:
Gram-negative bacteria [1] = assay: Activity comparison of P104 and LysP53 in vitro, overall; assay type: cell-based; conditions: stable phase, 37° C., 1 h
Protocol: (§1) A variety of strains including Acinetobacter baumannii, Pseudomonas aeruginosa, Klebsiella pneumoniae and Escherichia coli are cultured to stable phase (OD600nm between 1.2-1.4), respectively, and each precipitate is collected by centrifugation at 4° C., rinsed once with Tris-HCl buffer, and then the rinsed precipitate is dissolved in Tris-HCl buffer to obtain the bacterial solution. At the same time, mixed solutions including the same amount of the buffer and the above bacterial solution are prepared and used as the negative controls. After incubation at 37° C. for 1 h, the number (CFU) of the bacteria in the solutions are counted by plating on agar plates.

A. baumannii WHG40137 [2] = assay: Lytic activity of LysP53 against A. baumannii WHG40137 on burned skin surfaces of mice; assay type: in vivo, Acinetobacter baumannii; conditions: female BALB/c mice, burn site infected 24 h, 14 μg LysP53 topical vs 4 grams (g) minocycline, 4 h after treatment
Protocol: Female BALB/c mice aged 6-8 weeks are anesthetized by intraperitoneal injection of 40 milligrams per kilogram (mg/kg) pentobarbital (also referred to as pentobarbitone), and then shaved with an electric razor to remove 2 square centimeters (cm 2) of hair on the back. Partial burn can be achieved by exposing the naked skin to water at 65° C. for 12 s. 10 μL, of A. baumannii WHG40137 with a concentration of 10^8 CFU/mL is taken and inoculated at the burn site, and after colonization for 24 h, the mice are randomly divided into three groups. In the first group, there are 12 mice, and 14 μg of the lysin LysP53 is applied to the burn site of each mouse. In the second group, there are 12 mice, and 4 grams (g) minocycline is applied to the burn site of each mouse. In the third group, there are 9 mice, and the same amount of buffer solution is applied to the burn site of each mouse. Four hours after treatment, the mice are euthanatized and the infected skin is excised, infiltrated with 1 mL of phosphate buffered saline with Tween® 20 (PBST) and 0.1% Triton X-100 for 2 min, and homogenized with a tissue cell disruptor (NewZongKe, Wuhan, China). Finally, an aliquot of the suspension is diluted and plated to an LB plate containing 4 μg/mL of gentamicin and 2 μg/mL of meropenem, and the number of the colonies are counted after overnight culture.

A. baumannii WHG40137 [3] = assay: Effect of pH on lytic activity of LysP53 against A. baumannii WHG40137 (CFU plate count); assay type: cell-based, Acinetobacter baumannii; conditions: 100 μg/mL LysP53, logarithmic phase, 1 h
Protocol: A. baumannii WHG40137 is cultured to logarithmic phase (OD600nm between 0.4-0.6) first. Then, the precipitates are collected by centrifugation at 4° C., rinsed once with Tris-HCl buffer, and dissolved in Tris-HCL buffer with different pH values (pH 5-8) to obtain A. baumannii WHG40137 bacterial solutions. Finally, the lysin LysP53 prepared in the embodiment 2 is taken and mixed with the A. baumannii WHG40137 bacterial solutions to make the final concentration of the lysin LysP53 to be 100 μg/mL. At the same time, mixed solutions including the same amount of the buffer and the above bacterial solution are prepared and used as the negative controls. After incubation at 37° C. for 1 h, the number (CFU) of the bacteria in the solutions are counted by plating on agar plates.

A. baumannii WHG40137 [4] = assay: Time dependence of lysin LysP53 lysing A. baumannii WHG40137 (CFU plate count); assay type: cell-based, Acinetobacter baumannii; conditions: 100 μg/mL LysP53, logarithmic phase, 37° C.
Protocol: Acinetobacter baumannii (A. baumannii) WHG40137 is cultured to logarithmic phase (OD600nm between 0.4-0.6), and the precipitate is collected by low-temperature centrifugation, rinsed once with Tris-hydrochloride (Tris-HCl) buffer, and then the rinsed precipitate is dissolved in the buffer to obtain an A. baumannii WHG40137 bacterial solution. The lysin LysP53 prepared in the embodiment 2 is added in and mixed with the A. baumannii WHG40137 bacterial solution to make the final concentration of the lysin LysP53 to be 100 micrograms per milliliter (μg/mL). At the same time, a mixed solution including the same amount of the buffer and the above bacterial solution is prepared and used as negative control. During incubation of the solutions at 37° C., aliquots were sampled, respectively, at different times and used to count the number (colony-forming unit abbreviated as CFU) of the bacteria in the solutions by plating on agar plates.

A. baumannii WHG40137 [5] = assay: Effect of EDTA concentration on lytic activity of LysP53 against A. baumannii WHG40137 (CFU plate count); assay type: cell-based, Acinetobacter baumannii; conditions: 100 μg/mL LysP53, stable phase, EDTA 0, 62.5, 125, 250, 500 μM, 37° C., 1 h
Protocol: A. baumannii WHG40137 is cultured to stable phase (OD600nm between 1.2-1.4), and the precipitate is collected by centrifugation at 4° C., rinsed once with a Tris-HCl buffer, and is dissolved in Tris-HCl buffer to obtain an A. baumannii WHG40137 bacterial solution. The lysin LysP53 prepared in the embodiment 2 is taken and mixed with the A. baumannii WHG40137 bacterial solution containing EDTA at different concentrations (0 μM, 62.5 μM, 125 μM, 250 μM, and 500 μM) to make the final concentration of the lysin LysP53 to be 100 μg/mL. At the same time, mixed solutions including the same amount of the Tris-HCl buffer solution and each of the above bacterial solutions are used as negative controls. After incubation at 37° C. for 1 h, the number (CFU) of the bacteria in the solutions are counted by plating on agar plates.

Pseudomonas aeruginosa [6] = assay: Lysis spectrum of LysP53 in vitro (CFU plate count); assay type: cell-based; conditions: 100 μg/mL LysP53, stable phase, 37° C., 1 h
Protocol: (§2) A variety of strains including Acinetobacter baumannii, Pseudomonas aeruginosa, Klebsiella pneumoniae and Escherichia coli are cultured to stable phase (OD600nm between 1.2-1.4), respectively, and each precipitate is collected by centrifugation at 4° C., rinsed once with Tris-HCl buffer, and then the rinsed precipitate is dissolved in Tris-HCl buffer to obtain the bacterial solution. The lysin LysP53 prepared in the embodiment 2 is taken and mixed with the above bacterial solutions, respectively, to make the final concentration of the lysin LysP53 to be 100 μg/mL. At the same time, mixed solutions including the same amount of the buffer and each of the above bacterial solutions are prepared and used as negative controls. After incubation at 37° C. for 1 h, the number (CFU) of the bacteria in the solutions are counted by plating on agar plates.

Klebsiella pneumoniae [7] = assay: as above; assay type: cell-based; conditions: 100 μg/mL LysP53, stable phase, 37° C., 1 h
Protocol: as §2

Acinetobacter baumannii [8] = assay: as above; assay type: cell-based; conditions: 100 μg/mL LysP53, stable phase, 37° C., 1 h
Protocol: as §2

Escherichia coli [9] = assay: as above; assay type: cell-based; conditions: 100 μg/mL LysP53, stable phase, 37° C., 1 h
Protocol: as §2

Gram-negative bacteria [10] = assay: Lysis spectrum of LysP53 in vitro, overall; assay type: cell-based; conditions: 100 μg/mL LysP53, stable phase, 37° C., 1 h
Protocol: as §2

Pseudomonas aeruginosa [11] = assay: Activity comparison of P104 and LysP53 in vitro (CFU plate count); assay type: cell-based; conditions: stable phase, 37° C., 1 h
Protocol: as §1

Klebsiella pneumoniae [12] = assay: as above; assay type: cell-based; conditions: stable phase, 37° C., 1 h
Protocol: as §1

Acinetobacter baumannii [13] = assay: as above; assay type: cell-based; conditions: stable phase, 37° C., 1 h
Protocol: as §1

Escherichia coli [14] = assay: as above; assay type: cell-based; conditions: stable phase, 37° C., 1 h
Protocol: as §1

A. baumannii WHG40137 [15] = assay: Lytic activity of LysP53 against A. baumannii WHG40137 at different growth periods (CFU plate count); assay type: cell-based, Acinetobacter baumannii; conditions: 100 μg/mL LysP53, 37° C., 1 h; logarithmic phase (OD600 0.4-0.6) vs stable phase (OD600 1.2-1.4)
Protocol: A. baumannii WHG40137 is cultured to logarithmic phase (OD600nm between 0.4-0.6) or stable phase (OD600nm between 1.2-1.4) first. Then, the precipitates are collected by centrifugation at 4° C., rinsed once with Tris-HCl buffer, and dissolved in Tris-HCL buffer to obtain an A. baumannii WHG40137 bacterial solution. Finally, the lysin LysP53 prepared in the embodiment 2 is taken and mixed with the A. baumannii WHG40137 bacterial solution to make the final concentration of the lysin LysP53 to be 100 μg/mL. At the same time, a mixed solution including the same amount of the buffer and the above bacterial solution is prepared and used as the negative control. After incubation at 37° C. for 1 h, the number (CFU) of the bacteria in the solutions are counted by plating on agar plates.

P104: antibacterial peptide found in the genome of bacteriophage P53, amino acid sequence SEQ ID NO: 1, chemically synthesized (MTMTTKRIFEHMRPNLTDSQVQALYKLMEKGAD)
lytic activity against Gram-negative bacteria (Gram-negative bacteria [1]): broad-spectrum lytic activity

B1: LysP53: lysin from the genome of bacteriophage P53, amino acid sequence SEQ ID NO: 2, includes P104, about 24 kDa, expressed in E. coli (protein)
chain: MTMTTKRIFEHMRPNLTDSQVQALYKLMEKGADLDTIAQFAGVSPLVSTADVKQPSGFKFSQTSLKRLEGVNPKLVQVVNRALEISKEDFMVIEGVRTKESAWANWGKGRTAAQCQAAGVPTKYAQPSLAKVTWLTDPLKSKHMTGHAVDLAPIPLDWNDLKRFDLMAQAMFQASAELNIPIRWGADWDNDGVFREKGETDSPHFELAG
lytic activity on mouse skin compared with minocycline (A. baumannii WHG40137 [2]): higher lytic activity
lytic activity in pH range 5.0-6.5 versus pH range 7.0-8.0 (A. baumannii WHG40137 [3]; 37° C.): better lytic activity
concentration of the bacteria after incubation with LysP53 at pH 5.0-6.5 (A. baumannii WHG40137 [3]; pH 5.0-6.5, 37° C.): about 10 CFU/mL
lytic activity against Acinetobacter baumannii WHG40137 (A. baumannii WHG40137 [4]): good lytic activity
concentration of Acinetobacter baumannii WHG40137 after incubation for 15 min (A. baumannii WHG40137 [4]; Tris-HCl buffer, 15 min): greatly reduced
concentration of Acinetobacter baumannii WHG40137 after incubation for 1 h (A. baumannii WHG40137 [4]; Tris-HCl buffer, 1 h): about 10 CFU/mL
lytic activity with increasing EDTA concentration (A. baumannii WHG40137 [5]): gradually higher
lytic effect on Pseudomonas aeruginosa (Pseudomonas aeruginosa [6]): good lytic effect
lytic effect on Klebsiella pneumoniae (Klebsiella pneumoniae [7]): good lytic effect
lytic effect on a variety of Acinetobacter baumannii strains (Acinetobacter baumannii [8]): good lytic effect
lytic effect on Escherichia coli (Escherichia coli [9]): good lytic effect
spectrum in lysing Gram-negative bacteria (Gram-negative bacteria [10]): broad spectrum
activity against Pseudomonas aeruginosa, LysP53 compared with P104 (Pseudomonas aeruginosa [11]): comparable activity
activity against Klebsiella pneumoniae, LysP53 compared with P104 (Klebsiella pneumoniae [12]): comparable activity
lytic activity against Acinetobacter baumannii, LysP53 compared with P104 (Acinetobacter baumannii [13]): stronger lytic activity
activity against Escherichia coli, LysP53 compared with P104 (Escherichia coli [14]): comparable activity
lytic activity against Gram-negative bacteria (Gram-negative bacteria [1]): broad-spectrum lytic activity
lytic activity in logarithmic phase versus stable phase (A. baumannii WHG40137 [15]): higher lytic activity

From US20240139295A1 (priority 2021, published 2024)
